# In patent publication US9708413B2, “Glycosylated linker, compound containing glycosylated linker moiety and physiologically active substance moiety or salt thereof, and methods for producing said compound or salt thereof” (Glytech, Inc., priority 2012, dated 2017):
# Values joined by “and” are separate entries in the source; they are usually repeats but may differ in a detail not shown here. Identical values can stand only once. Like-named read-outs stand apart in the source and are kept apart here.
# Columns and labels:
# [1] = Autocatalytic cleavage of the glycosylated linker moiety in aqueous solution, traced by HPLC (elimination half-life)
# Protocol: To each sampled solution, a 0.5% aqueous TFA solution (28 μL) was added, and this solution was then frozen. The obtained solution was dissolved immediately before HPLC analysis, and a 50 μL aliquot thereof was injected and analyzed by HPLC [column: SHISEIDO CAPCELL PAK C18 UG-120 (5 μm), φ4.6×250 mm, flow rate: 0.7 mL/min, eluent A: 0.1% TFA in water, eluent B: 0.09% TFA/10% water/90% acetonitrile, gradient A:B=77:23→50:50 (20 min) linear concentration gradient elution]. The compound was detected using a diode array detector with a detection wavelength set to 220 nm.
# physchem = assay: physchem
# Protocol: To each microtube, 30 μL of a 0.1% aqueous TFA solution was added. These microtubes were shaken at 25° C. for 15 minutes and then centrifuged at 16100×g at 25° C. for 10 minutes. Subsequently, the absorbance of the supernatant at 280 nm was measured in each of these microtubes.
# Then, three of these tubes were used in amino acid composition analysis to determine sample contents. […] This absorbance at 280 nm was divided by the concentration determined in the amino acid composition analysis to determine the molar absorption coefficient.
# The molar absorption coefficient εM of the HER28-16 peptide (SEQ ID NO: 15) at 280 nm was calculated according to the following expression (C. N. Pace et al., Prot. Sci., 1995, 4, pp. 2411-2423): εM=Trp×5500+Tyr×1490+Cystine×125[A280/mol/cm]
# wherein Trp represents the number of tryptophan residues, Tyr represents the number of tyrosine residues, and Cystine represents the number of disulfide bonds.
# [2] = PBS solution, pH 7.4, Elimination half-life, PBS (pH 7.4), 37° C.
# [3] = acetate buffer solution, pH 4, Elimination half-life, Acetate buffer solution (pH 4.0), 37° C.
# [4] = PBS solution, pH 7.4, Elimination half-life, PBS (pH 7.4), 25° C.
# [5] = acetate buffer solution, pH 4, Elimination half-life, Acetate buffer solution (pH 4.0), 25° C.
Structure (SMILES),"half-life [1, 2] [h]","half-life [1, 3] [h]","half-life [1, 4] [h]","half-life [1, 5] [h]",other results
"CC(=O)N[C@@H]1[C@@H](O)[C@H](O[C@@H]2O[C@H](CO)[C@@H](O[C@@H]3O[C@H](CO[C@H]4O[C@H](CO)[C@@H](O)[C@H](O)[C@@H]4O[C@@H]4O[C@H](CO)[C@@H](O[C@@H]5O[C@H](CO)[C@H](O)[C@H](O)[C@H]5O)[C@H](O)[C@H]4NC(C)=O)[C@@H](O)[C@H](O[C@H]4O[C@H](CO)[C@@H](O)[C@H](O)[C@@H]4O[C@@H]4O[C@H](CO)[C@@H](O[C@@H]5O[C@H](CO)[C@H](O)[C@H](O)[C@H]5O)[C@H](O)[C@H]4NC(C)=O)[C@@H]3O)[C@H](O)[C@H]2NC(C)=O)[C@@H](CO)O[C@H]1NC(=O)CSCC(N)C(=O)N1CCN(CCNC(=O)c2ccccc2C(=O)N[C@@H](Cc2ccc(O)cc2)C(=O)N[C@@H](Cc2ccccc2)C(=O)N2CCC[C@H]2C(=O)NCC(=O)N[C@@H](CCC(N)=O)C(=O)N[C@@H](Cc2ccccc2)C(=O)N[C@@H](C)C(=O)N[C@@H](Cc2ccccc2)C(=O)N[C@@H](CO)C(=O)O)CC1 (stereo partly shown) [compound 5, glycosylated (Cys (asialo)-type) linker-chemerin 9 conjugate]",1.3,4.5,–,–,–
"CC(=O)N[C@@H]1[C@@H](O)[C@H](O[C@@H]2O[C@H](CO)[C@@H](O[C@@H]3O[C@H](CO[C@H]4O[C@H](CO)[C@@H](O)[C@H](O)[C@@H]4O[C@@H]4O[C@H](CO)[C@@H](O[C@@H]5O[C@H](CO)[C@H](O)[C@H](O)[C@H]5O)[C@H](O)[C@H]4NC(C)=O)[C@@H](O)[C@H](O[C@H]4O[C@H](CO)[C@@H](O)[C@H](O)[C@@H]4O[C@@H]4O[C@H](CO)[C@@H](O[C@@H]5O[C@H](CO)[C@H](O)[C@H](O)[C@H]5O)[C@H](O)[C@H]4NC(C)=O)[C@@H]3O)[C@H](O)[C@H]2NC(C)=O)[C@@H](CO)O[C@H]1NC(=O)CC(N)C(=O)N1CCN(CCNC(=O)c2ccccc2C(=O)N[C@@H](Cc2ccc(O)cc2)C(=O)N[C@@H](Cc2ccccc2)C(=O)N2CCC[C@H]2C(=O)NCC(=O)N[C@@H](CCC(N)=O)C(=O)N[C@@H](Cc2ccccc2)C(=O)N[C@@H](C)C(=O)N[C@@H](Cc2ccccc2)C(=O)N[C@@H](CO)C(=O)O)CC1 (stereo partly shown) [compound 1, glycosylated (Asn (asialo)-type) linker-chemerin 9 conjugate]",1.2,4.4,4.3,16,"half-life ([1]; PBS solution, pH 7.4, Elimination half-life, PBS (pH 7.4), 4° C.): 43.1 h; half-life ([1]; acetate buffer solution, pH 4, Elimination half-life, Acetate buffer solution (pH 4.0), 4° C.): 250 h; half-life ([1]; water, Elimination half-life (Reference), in water, 4° C.): 221 h"
"CC(C)C[C@H](NC(=O)[C@H](CC(C)C)NC(=O)[C@H](C)NC(=O)[C@H](CC(C)C)NC(=O)[C@H](CC(C)C)NC(=O)[C@H](CC(C)C)NC(=O)CNC(=O)[C@H](Cc1c[nH]c2ccccc12)NC(=O)[C@@H](N)CCCNC(=N)N)C(=O)O [HER28-16, reference compound]",–,–,–,–,solubility thermodynamic at 15 min (physchem): 210 µg/mL and 200 µM
"CC(=O)N[C@@H]1[C@@H](O)[C@H](O)[C@@H](CO)O[C@H]1NC(=O)CSC[C@H](N)C(=O)N1CCN(CCNC(=O)c2ccccc2C(=O)N[C@@H](Cc2ccc(O)cc2)C(=O)N[C@@H](Cc2ccccc2)C(=O)N2CCC[C@H]2C(=O)NCC(=O)N[C@@H](CCC(N)=O)C(=O)N[C@@H](Cc2ccccc2)C(=O)N[C@@H](C)C(=O)N[C@@H](Cc2ccccc2)C(=O)N[C@@H](CO)C(=O)O)CC1 [compound 4, glycosylated (Cys (GlcNAc)-type) linker-chemerin 9 conjugate]",1.4,4.3,–,–,–
"CC(=O)N[C@@H]1[C@@H](O)[C@H](O[C@@H]2O[C@H](CO)[C@@H](O[C@@H]3O[C@H](CO[C@H]4O[C@H](CO)[C@@H](O)[C@H](O)[C@@H]4O[C@@H]4O[C@H](CO)[C@@H](O[C@@H]5O[C@H](CO)[C@H](O)[C@H](O)[C@H]5O)[C@H](O)[C@H]4NC(C)=O)[C@@H](O)[C@H](O[C@H]4O[C@H](CO)[C@@H](O)[C@H](O)[C@@H]4O[C@@H]4O[C@H](CO)[C@@H](O[C@@H]5O[C@H](CO)[C@H](O)[C@H](O)[C@H]5O)[C@H](O)[C@H]4NC(C)=O)[C@@H]3O)[C@H](O)[C@H]2NC(C)=O)[C@@H](CO)O[C@H]1NC(=O)CC(NC(=O)OCC1c2ccccc2-c2ccccc21)C(=O)N1CCN(CCNC(=O)c2ccccc2C(=O)N[C@@H](Cc2ccc(O)cc2)C(=O)N[C@@H](Cc2ccccc2)C(=O)N2CCC[C@H]2C(=O)NCC(=O)N[C@@H](CCC(N)=O)C(=O)N[C@@H](Cc2ccccc2)C(=O)N[C@@H](C)C(=O)N[C@@H](Cc2ccccc2)C(=O)N[C@@H](CO)C(=O)O)CC1 (stereo partly shown) [compound 7, glycosylated (Fmoc-Asn (asialo)-type) linker-chemerin 9 conjugate]",2.6,12.2,–,–,–
"CC(=O)N[C@@H]1[C@@H](O)[C@H](O[C@@H]2O[C@H](CO)[C@@H](O[C@@H]3O[C@H](CO[C@H]4O[C@H](CO)[C@@H](O)[C@H](O)[C@@H]4O[C@@H]4O[C@H](CO)[C@@H](O[C@@H]5O[C@H](CO)[C@H](O)[C@H](O)[C@H]5O)[C@H](O)[C@H]4NC(C)=O)[C@@H](O)[C@H](O[C@H]4O[C@H](CO)[C@@H](O)[C@H](O)[C@@H]4O[C@@H]4O[C@H](CO)[C@@H](O[C@@H]5O[C@H](CO)[C@H](O)[C@H](O)[C@H]5O)[C@H](O)[C@H]4NC(C)=O)[C@@H]3O)[C@H](O)[C@H]2NC(C)=O)[C@@H](CO)O[C@H]1NC(=O)CC(N)C(=O)N1CCN(CCNC(=O)c2ccccc2C(=O)N[C@@H](CCCNC(=N)N)C(=O)N[C@@H](Cc2c[nH]c3ccccc23)C(=O)NCC(=O)N[C@@H](CC(C)C)C(=O)N[C@@H](CC(C)C)C(=O)N[C@@H](CC(C)C)C(=O)N[C@@H](C)C(=O)N[C@@H](CC(C)C)C(=O)N[C@@H](CC(C)C)C(=O)O)CC1 (stereo partly shown) [compound 11, glycosylated (Asn (asialo)-type) linker-HER28-16 conjugate]",2.6,6.2,8.3,21.4,"solubility at 15 minutes (physchem): > 38 mM; Solubility (physchem; 0.1% aqueous TFA solution, 25° C., listed as Glycosylated linker-HER28-16 conjugate (compound 11)): >116 mg/mL; solubility at 15 minutes (physchem; Solubility (molar concentration), 0.1% aqueous TFA solution, 25° C.): ≥ 38 mM"
"CC(=O)N[C@@H]1[C@@H](O)[C@H](O[C@@H]2O[C@H](CO)[C@@H](O[C@@H]3O[C@H](CO[C@H]4O[C@H](CO)[C@@H](O)[C@H](O)[C@@H]4O[C@@H]4O[C@H](CO)[C@@H](O[C@@H]5O[C@H](CO)[C@H](O)[C@H](O)[C@H]5O)[C@H](O)[C@H]4NC(C)=O)[C@@H](O)[C@H](O[C@H]4O[C@H](CO)[C@@H](O)[C@H](O)[C@@H]4O[C@@H]4O[C@H](CO)[C@@H](O[C@@H]5O[C@H](CO)[C@H](O)[C@H](O)[C@H]5O)[C@H](O)[C@H]4NC(C)=O)[C@@H]3O)[C@H](O)[C@H]2NC(C)=O)[C@@H](CO)O[C@H]1NC(=O)CC(N)C(=O)N1CCN(CCNC(=O)c2c(Cl)c(Cl)c(Cl)c(Cl)c2C(=O)N[C@@H](Cc2ccc(O)cc2)C(=O)N[C@@H](Cc2ccccc2)C(=O)N2CCC[C@H]2C(=O)NCC(=O)N[C@@H](CCC(N)=O)C(=O)N[C@@H](Cc2ccccc2)C(=O)N[C@@H](C)C(=O)N[C@@H](Cc2ccccc2)C(=O)N[C@@H](CO)C(=O)O)CC1 (stereo partly shown) [compound 10, glycosylated (Asn (asialo)-tetrachlorophthaloyl-type) linker-chemerin 9 conjugate]",0.255,1.3,1.1,4.5,–
